Results reported in article PMC4973743, “Functional analysis of structurally related soybean GmWRKY58 and GmWRKY76 in plant growth and development”.

T1: GmWRKY76 (Glycine max (soybean), UniProt I1KB70 1-319)
T1 sequence: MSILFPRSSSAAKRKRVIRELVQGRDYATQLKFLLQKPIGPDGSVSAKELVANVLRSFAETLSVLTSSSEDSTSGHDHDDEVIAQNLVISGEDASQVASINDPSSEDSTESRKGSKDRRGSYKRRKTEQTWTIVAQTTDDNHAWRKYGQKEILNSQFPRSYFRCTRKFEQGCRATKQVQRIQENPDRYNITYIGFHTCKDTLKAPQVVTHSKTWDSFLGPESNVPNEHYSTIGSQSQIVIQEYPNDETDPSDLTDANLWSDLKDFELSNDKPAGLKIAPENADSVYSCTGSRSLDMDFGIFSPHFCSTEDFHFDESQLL

T2: GmWRKY58 (Glycine max (soybean), UniProt B0LUS3 1-317)
T2 sequence: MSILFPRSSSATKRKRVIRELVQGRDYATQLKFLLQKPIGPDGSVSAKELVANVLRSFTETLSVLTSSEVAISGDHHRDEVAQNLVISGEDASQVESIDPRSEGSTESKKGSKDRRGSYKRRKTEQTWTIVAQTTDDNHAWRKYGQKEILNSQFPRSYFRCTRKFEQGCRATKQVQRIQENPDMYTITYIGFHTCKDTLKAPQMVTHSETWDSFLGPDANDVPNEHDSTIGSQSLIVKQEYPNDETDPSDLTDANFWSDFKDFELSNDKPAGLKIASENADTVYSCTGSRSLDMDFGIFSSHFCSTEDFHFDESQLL


Experiments:
GmWRKY76 = target: T1, GmWRKY76; assay: EMSA; 5 ug poly(dI-dC), 1 ug protein; LightShift Chemiluminescent EMSA kit; 20 ul reactions, 2 ng labeled oligo, 5 ug poly(dI-dC), 1 ug recombinant protein; buffer, salt, pH and temperature not stated; settings: tags: His (pET32a fusion), label: biotin 3' end
GmWRKY58 = target: T2, GmWRKY58; assay: as above; settings: tags: His (pET32a fusion), label: biotin 3' end

Binder	binding result (GmWRKY76)	binding result (GmWRKY58)
Pchn5 (dsDNA) DNA 1: GGAACTTGACCATCCGTTGACCGGGCTGCAGGAATTCG DNA 2: CGAATTCCTGCAGCCCGGTCAACGGATGGTCAAGTTCC	binds	binds
mPchn5 (dsDNA) DNA 1: GGAACTTGAACATCCGTTGAACGGGCTGCAGGAATTCG DNA 2: CGAATTCCTGCAGCCCGTTCAACGGATGTTCAAGTTCC	no binding	no binding
